The results in this text go back to patent publication US20200392228A1 (PANDION OPERATIONS, published 2020).

Where a chain is given by its changes, count along the chain named.

The chains are these.
T1: human MAdCAM expressed on cells (human, UniProt Q13477 19-382)
T1 construct: whole, on cells; also called MADCAM1
T1 sequence (looked up): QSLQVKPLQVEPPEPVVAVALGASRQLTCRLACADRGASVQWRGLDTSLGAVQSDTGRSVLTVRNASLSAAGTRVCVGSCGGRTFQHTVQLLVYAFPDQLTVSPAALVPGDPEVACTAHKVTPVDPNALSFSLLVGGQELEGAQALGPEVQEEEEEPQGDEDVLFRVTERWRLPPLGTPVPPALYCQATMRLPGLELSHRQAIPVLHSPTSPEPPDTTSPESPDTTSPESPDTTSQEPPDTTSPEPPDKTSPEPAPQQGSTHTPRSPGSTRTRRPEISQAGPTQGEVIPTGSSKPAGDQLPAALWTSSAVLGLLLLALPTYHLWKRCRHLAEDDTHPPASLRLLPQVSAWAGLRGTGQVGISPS

T2: mouse MAdCAM expressed on cells (mouse, UniProt Q61826 22-405)
T2 construct: whole, on cells
T2 sequence (looked up): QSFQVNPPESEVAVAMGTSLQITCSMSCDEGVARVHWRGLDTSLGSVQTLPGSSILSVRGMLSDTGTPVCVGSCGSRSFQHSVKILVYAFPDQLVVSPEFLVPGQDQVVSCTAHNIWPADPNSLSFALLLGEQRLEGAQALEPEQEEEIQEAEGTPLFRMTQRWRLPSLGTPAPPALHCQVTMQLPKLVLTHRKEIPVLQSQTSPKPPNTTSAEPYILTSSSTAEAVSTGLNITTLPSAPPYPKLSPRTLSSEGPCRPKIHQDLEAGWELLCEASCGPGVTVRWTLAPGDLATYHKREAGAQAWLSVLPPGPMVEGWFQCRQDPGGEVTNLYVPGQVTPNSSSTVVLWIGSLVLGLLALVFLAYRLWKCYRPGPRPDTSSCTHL

B1: MAdCAM antibody Clone ID 27 of Table 6 (scFv) (scFv)
scFv: QVQLVQSGAEVKKPGASVKVSCKASGYTFTGYYIHWVRQAPGQGLEWMGWMNPNSGNTGYAQKFQGRVTMTRDTSTSTVYMELSSLRSEDTAVYYCARDPGFLGYCSGGSCYDGWFDPWGQGTLVTVSSGGGGSGGGGSGGGGSGGGGSDIQMTQSPSSLSASVGDRVTITCRASQSISSYLHWYQQKPGKAPKLLIYAASSLQSGVPSRFSGSGSGTDFTLTISSLQPEDFATYYCQQSYTAPYTFGQGTKLEIK
B2: MAdCAM antibody Clone ID 17 of Table 6 (scFv) (scFv)
scFv: EVQLLESGGGLVQPGGSLRLSCAASGFTFSDSAMHWVRQAPGKGLEWVSAISGSGSTIYYADSVKGRFTISRDNSKNTLYLQMNSLRAEDTAVYYCVSDIAVAGHWYFDLWGRGTLVTVSSGGGGSGGGGSGGGGSGGGGSDIQMTQSPSSLSASVGDRVTITCRASQSISTFLNWYQQKPGKAPKLLIYAASRLEGGVPSRFSGSGSGTDFTLTISSLQPEDFATYYCQQANSFPLTFGPGTKVDIK
B3: MAdCAM antibody Clone ID 35 of Table 6 (scFv) (scFv)
scFv: EVQLLESGGGLVQPGGSLRLSCAASGFSFSSYTMNWVRQAPGKGLEWVSFITSSSRTIYYADSVKGRFTISRDNSKNTLYLQMNSLRAEDTAVYYCARDRRGDYGDSWYFDLWGRGTLVTVSSGGGGSGGGGSGGGGSGGGGSEIVMTQSPATLSVSPGERATLSCRASQSVRNYLAWYQQKPGQAPRLLIYGASTRATGIPARFSGSGSGTEFTLTISSLQSEDFAVYYCQQYGSSPLTFGGGTKVEIK
B4: MAdCAM antibody Clone ID 29 of Table 6 (scFv) (scFv)
scFv: QVQLVQSGAEVKKPGASVKVSCKASGYTFTSYYMHWVRQAPGQGLEWMAWMNPNSGNTGYAQKFQGRVTMTRDTSTSTVYMELSSLRSEDTAVYYCARDYDFWSGSLGYWGQGTLVTVSSGGGGSGGGGSGGGGSGGGGSDIQMTQSPSSLSASVGDRVTITCRASQGISNYLAWYQQKPGKAPKLLIYAASSLQSGVPSRFSGSGSGTDFTLTISSLQPEDFATYYCQQSYSTPWTFGQGTKVEIK
B5: MAdCAM antibody Clone ID 38 of Table 6 (scFv) (scFv)
scFv: EVQLLESGGGLVQPGGSLRLSCAASGFTFGSYSMSWVRQAPGKGLEWVSAIGTGGGTYYADSVKGRFTISRDNSKNTLYLQMNSLRAEDTAVYYCAKGTPYYYYYGMDVWGQGTMVTVSSGGGGSGGGGSGGGGSGGGGSDIQMTQSPSSLSASVGDRVTITCRASQPLSNWLAWYQQKPGKAPKLLIYAASSLQSGVPSRFSGSGSGTDFTLTISSLQPEDFATYYCQQAISFPLTFGGGTKVEIK
B6: MAdCAM antibody Clone ID 33 of Table 6 (scFv) (scFv)
scFv: QVQLVQSGAEVKKPGASVKVSCKASGYTFTSYGISWVRQAPGQGLEWMGWMHPKSGDTGLTQKFQGRVTMTRDTSTSTVYMELSSLRSEDTAVYYCARDTPYYYYGMDVWGQGTTVTVSSGGGGSGGGGSGGGGSGGGGSDIQMTQSPSSLSASVGDRVTITCRASQSISSWLAWYQQKPGKAPKLLIYAASSLQSGVPSRFSGSGSGTDFTLTISSLQPEDFATYYCQQSYSVPITFGQGTKVEIK
B7: MAdCAM antibody Clone ID 32 of Table 6 (scFv) (scFv)
scFv: QVQLVQSGAEVKKPGASVKVSCKASGYTLTDYYMHWVRQAPGQGLEWMGIINPSGGSTSYAQKFQGRVTMTRDTSTSTVYMELSSLRSEDTAVYYCAREEYSSSSGYFDYWGQGTLVTVSSGGGGSGGGGSGGGGSGGGGSDIQMTQSPSSLSASVGDRVTITCRASQGISSWLAWYQQKPGKAPKLLIYAASSLQSGVPSRFSGSGSGTDFTLTISSLQPEDFATYYCQQSYSTPLTFGQGTKVEIK
B8: MAdCAM antibody Clone ID 31 of Table 6 (scFv) (scFv)
scFv: QVQLVQSGAEVKKPGASVKVSCKASGYTFTSYYMHWVRQAPGQGLEWMGIINPSGGSTSYAQKFQGRVTMTRDTSTSTVYMELSSLRSEDTAVYYCARDTGYSYGRYYYYGMDVWGQGTLVTVSSGGGGSGGGGSGGGGSGGGGSDIQMTQSPSSLSASVGDRVTITCRASQSIGRWLAWYQQKPGKAPKLLIYDASNLQSGVPSRFSGSGSGTDFTLTISSLQPEDFATYYCQQSYSIPITFGQGTKVEIK
B9: MAdCAM antibody Clone ID 36 of Table 6 (scFv) (scFv)
scFv: B8 scFv with S31G, Y32H, L120T, Q245G
B10: MAdCAM antibody Clone ID 39 of Table 6 (scFv) (scFv)
scFv: QVQLVQSGAEVKKPGASVKVSCKASGYTFTSYYMHWVRQAPGQGLEWMGWMNPNSGNTGYAQKFQGRVTMTRDTSTSTVYMELSSLRSEDTAVYYCARDLGYYDSSGYFGAFDIWGQGTTVTVSSGGGGSGGGGSGGGGSGGGGSDIQMTQSPSSLSASVGDRVTITCQSSEDISSSLNWYQQKPGKAPKLLIYAASSLQIGVPSRFSGSGSGTDFTLTISSLQPEDFATYYCQQTYSTPYTFGQGTKVEIK
B11: MAdCAM antibody Clone ID 37 of Table 6 (scFv) (scFv)
scFv: QVQLVQSGAEVKKPGASVKVSCKASGYTFSKHFVHWVRQAPGQGLEWMGWMNPNSGNSGYAQKFQGRVTMTRDTSTSTVYMELSSLRSEDTAVYYCARGEGGYYYYGMDVWGQGTLVTVSSGGGGSGGGGSGGGGSGGGGSDIQMTQSPSSLSASVGDRVTITCRASQSISSWLAWYQQKPGKAPKLLIYAASTLQSGVPSRFSGSGSGTDFTLTISSLQPEDFATYYCQQSYSTPWTFGQGTKVEIK
B12: MAdCAM antibody Clone ID 28 of Table 6 (scFv) (scFv)
scFv: QVQLVQSGAEVKKPGASVKVSCKASGYTFTDYFLHWVRQAPGQGLEWMGWMNPTSGNTGYAQKFQGRVTMTRDTSTSTVYMELSSLRSEDTAVYYCAREGEGSGFDYWGQGTLVTVSSGGGGSGGGGSGGGGSGGGGSDIQMTQSPSSLSASVGDRVTITCRASQGINSWLAWYQQKPGKAPKLLIYDASNLETGVPSRFSGSGSGTDFTLTISSLQPEDFATYYCQQSYSTPLTFGGGTKVEIK
B13: MAdCAM antibody Clone ID 21 of Table 6 (scFv) (scFv)
scFv: EVQLLESGGGLVQPGGSLRLSCAASGFTFSNAWMSWVRQAPGKGLEWVSTIVGNGGATYYADSVKGRFTISRDNSKNTLYLQMNSLRAEDTAVYYCARDNPLRWQGMDVWGQGTLVTVSSGGGGSGGGGSGGGGSGGGGSDIQMTQSPSSLSASVGDRVTITCRASQDISNYLNWYQQKPGKAPKLLIYAASSLQSGVPSRFSGSGSGTDFTLTISSLQPEDFATYYCQQSYSIPPTFGPGTKVDIK
B14: MAdCAM antibody Clone ID 13 of Table 7 (IgG) (antibody, V domains shown)
VH: QVQLVQSGAEVKKPGASVKVSCKASGYTFTTYYMHWVRQAPGQGLEWMGGFDPEDGETIYAQKFQGRVTMTRDTSTSTVYMELSSLRSEDTAVYYCARHAVAGAVGAGYYYYGMDVWGQGTMVTVSS
VL: DIQMTQSPSSLSASVGDRVTITCRASESISNWLAWYQQKPGKAPKLLIYAASTLQSGVPSRFSGSGSGTDFTLTISSLQPEDFATYYCQQSYSVPFTFGPGTKVDIK
notes: IgG format
B15: MAdCAM antibody Clone ID 15 of Table 7 (IgG) (antibody, V domains shown)
VH: QVQLVQSGAEVKKPGASVKVSCKASGYTFTGYYMHWVRQAPGQGLEWMGWIGPNSGDTNYAQKFQGRVTMTRDTSTSTVYMELSSLRSEDTAVYYCARDLDHNWYFDLWGRGTLVTVSS
VL: DIVMTQSPLSLPVTPGEPASISCRSSQSLLHSNGYNYLDWYLQKPGQSPQLLIYSSSNRAPGVPDRFSGSGSGTDFTLKISRVEAEDVGVYYCMQALHIPLTFGGGTKVEIK
notes: IgG format
B16: MAdCAM antibody Clone ID 1 of Table 7 (IgG) (antibody, V domains shown)
VH: EVQLLESGGGLVQPGGSLRLSCAASGFTFSSYGMHWVRQAPGKGLEWVAVISDDGSDKYYADSVKGRFTISRDNSKNTLYLQMNSLRAEDTAVYYCTTSKYYYYYGMDVWGQGTTVTVSS
VL: DIQMTQSPSSLSASVGDRVTITCQASQDISKSLNWYQQKPGKAPKLLIYAASSLQSGVPSRFSGSGSGTDFTLTISSLQPEDFATYYCQQGYSTPLTFGGGTKVEIK
notes: IgG format

The target in one experiment is T1, human MAdCAM expressed on cells. The experiment is described as follows: cell binding.
Take B1: the binding result is given as “binds”.
For B2, the binding result is on record as “binds”.
Same read-out and setting: as for B3, the entry is “binds”; as for B4, “binds”.
The same measure, in the same setting: as for B5, the entry is “binds”; as for B6, “binds”.
On to B7, for which the binding result was “binds”.
On the same count and under the same terms, as for B8, the entry is “binds”.
On the same count and under the same terms, as for B9, the entry is “binds”; as for B10, “binds”.
Same read-out and setting: as for B11, the entry is “binds”; as for B12, “binds”; as for B13, “binds”.

Another experiment deals with T2, mouse MAdCAM expressed on cells. The experiment is described as follows: cell binding.
In the case of B1, the binding result is recorded as “no binding”.
On the same count and under the same terms, as for B2, the entry is “no binding”; as for B3, “no binding”.
Still for that read-out and setting: as for B4, the entry is “no binding”; as for B5, “no binding”; as for B6, “no binding”.
On the same count and under the same terms, as for B7, the entry is “no binding”; as for B8, “no binding”; as for B9, “no binding”.
Consider B10, for which the binding result is recorded as “no binding”.
As for B11, the binding result is listed as “no binding”.
On to B12, for which the binding result is recorded as “no binding”.
On the same count and under the same terms, as for B13, the entry is “no binding”.

In the next experiment the target is T1, human MAdCAM expressed on cells. The experiment is described as follows: cell binding. This is another data set of the same source.
Turning to B14, the binding result is “binds”.
Take B15: the binding result is “binds”.
On the same count and under the same terms, as for B16, the entry is “binds”.

The target of the next experiment is T2, mouse MAdCAM expressed on cells. Description: cell binding. This is another data set of the same source.
On to B14, for which the binding result is listed as “no binding”.
Still for that read-out and setting: as for B15, the entry is “no binding”; as for B16, “binds”.
